The chains are these.
B1: Protein PTHB1 (Homo sapiens), Q3SYG4 (parent)
chain: MSLFKARDWWSTILGDKEEFDQGCLCLANVDNSGNGQDKIIVGSFMGYLRIFSPHPAKTGDGAQAEDLLLEVDLRDPVLQVEVGKFVSGTEMLHLAVLHSRKLCVYSVSGTLGNVEHGNQCQMKLMYEHNLQRTACNMTYGSFGGVKGRDLICIQSMDGMLMVFEQESYAFGRFLPGFLLPGPLAYSSRTDSFLTVSSCQQVESYKYQVLAFATDADKRQETEQQKLGSGKRLVVDWTLNIGEQALDICIVSFNQSASSVFVLGERNFFCLKDNGQIRFMKKLDWSPSCFLPYCSVSEGTINTLIGNHNNMLHIYQDVTLKWATQLPHIPVAVRVGCLHDLKGVIVTLSDDGHLQCSYLGTDPSLFQAPNVQSRELNYDELDVEMKELQKIIKDVNKSQGVWPMTEREDDLNVSVVVSPNFDSVSQATDVEVGTDLVPSVTVKVTLQNRVILQKAKLSVYVQPPLELTCDQFTFEFMTPDLTRTVSFSVYLKRSYTPSELEGNAVVSYSRPTDRNPDGIPRVIQCKFRLPLKLICLPGQPSKTASHKITIDTNKSPVSLLSLFPGFASQSDDDQVNVMGFHFLGGARITVLASKTSQRYRIQSEQFEDLWLITNELILRLQEYFEKQGVKDFACSFSGSIPLQEYFELIDHHFELRINGEKLEELLSERAVQFRAIQRRLLARFKDKTPAPLQHLDTLLDGTYKQVIALADAVEENQGNLFQSFTRLKSATHLVILLIALWQKLSADQVAILEAAFLPLQEDTQELGWEETVDAAISHLLKTCLSKSSKEQALNLNSQLNIPKDTSQLKKHITLLCDRLSKGGRLCLSTDAAAPQTMVMPGGCTTIPESDLEERSVEQDSTELFTNHRHLTAETPRPEVSPLQGVSE
partner: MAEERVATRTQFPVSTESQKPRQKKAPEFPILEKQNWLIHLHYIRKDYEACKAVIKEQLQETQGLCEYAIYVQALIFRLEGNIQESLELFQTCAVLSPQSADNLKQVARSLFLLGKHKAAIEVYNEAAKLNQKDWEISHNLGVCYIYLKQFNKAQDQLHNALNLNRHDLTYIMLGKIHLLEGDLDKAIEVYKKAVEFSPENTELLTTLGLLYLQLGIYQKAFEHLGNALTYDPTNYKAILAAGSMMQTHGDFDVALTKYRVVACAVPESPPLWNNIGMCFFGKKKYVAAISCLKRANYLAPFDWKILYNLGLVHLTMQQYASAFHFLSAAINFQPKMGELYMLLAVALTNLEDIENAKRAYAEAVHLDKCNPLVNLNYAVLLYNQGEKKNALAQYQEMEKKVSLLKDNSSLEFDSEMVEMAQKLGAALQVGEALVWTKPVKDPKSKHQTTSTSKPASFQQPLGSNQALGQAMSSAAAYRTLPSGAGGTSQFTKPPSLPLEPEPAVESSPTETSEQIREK

92 variants from IntAct's records for PubMed 29039417 can be followed below.

Variants of B1 are the subject of the test. The conditions noted are these: with bbs4_human BBS4, Q96RK4.
With D517A, the “effect of a mutation on the interaction” value is reported as “with no effect”.

In the case of D517K, the “effect of a mutation on the interaction” value is “with no effect”.

As to D517E, the “effect of a mutation on the interaction” value is on record as “with no effect”.

Consider F527A, for which the “effect of a mutation on the interaction” value is listed as “with no effect”.

With F527E, the “effect of a mutation on the interaction” value is given as “with no effect”.

Turning to C525E, the “effect of a mutation on the interaction” value is reported as “with no effect”.

For C525K, the “effect of a mutation on the interaction” value was “with no effect”.

Regarding C525A, the “effect of a mutation on the interaction” value is given as “with no effect”.

In the case of Y508K, the “effect of a mutation on the interaction” value is “with no effect”.

For Y508A, the “effect of a mutation on the interaction” value is listed as “with no effect”.

For Y508E, the “effect of a mutation on the interaction” value is given as “with no effect”.

As for P520A, the “effect of a mutation on the interaction” value is reported as “with no effect”.

Regarding P520K, the “effect of a mutation on the interaction” value is listed as “with no effect”.

As to P520E, the “effect of a mutation on the interaction” value was “with no effect”.

As for Q524A, the “effect of a mutation on the interaction” value was “with no effect”.

As for Q524E, the “effect of a mutation on the interaction” value was “with no effect”.

In the case of Q524K, the “effect of a mutation on the interaction” value is recorded as “with no effect”.

For the variant T473K, the “effect of a mutation on the interaction” value was “with no effect”.

For T473A, the “effect of a mutation on the interaction” value is “with no effect”.

Turning to T473E, the “effect of a mutation on the interaction” value was “with no effect”.

Turning to M477E, the “effect of a mutation on the interaction” value is reported as “with no effect”.

M477K: the “effect of a mutation on the interaction” value is “with no effect”.

For the variant M477A, the “effect of a mutation on the interaction” value is listed as “with no effect”.

On to K492E, for which the “effect of a mutation on the interaction” value was “with no effect”.

As for K492A, the “effect of a mutation on the interaction” value is given as “with no effect”.

Consider E475A, for which the “effect of a mutation on the interaction” value is “with no effect”.

In the case of E475K, the “effect of a mutation on the interaction” value is recorded as “with no effect”.

Turning to V505K, the “effect of a mutation on the interaction” value was “with no effect”.

Regarding V505A, the “effect of a mutation on the interaction” value was “with no effect”.

On to V505E, for which the “effect of a mutation on the interaction” value is recorded as “with no effect”.

R483K: the “effect of a mutation on the interaction” value was “with no effect”.

R483A: the “effect of a mutation on the interaction” value is given as “with no effect”.

Consider R483E, for which the “effect of a mutation on the interaction” value is listed as “with no effect”.

Take L491E: the “effect of a mutation on the interaction” value is recorded as “with no effect”.

Take L491K: the “effect of a mutation on the interaction” value is given as “with no effect”.

As to L491A, the “effect of a mutation on the interaction” value was “with no effect”.

Consider R510A, for which the “effect of a mutation on the interaction” value was “with no effect”.

Take R510E: the “effect of a mutation on the interaction” value is “with no effect”.

R510K: the “effect of a mutation on the interaction” value was “with no effect”.

Turning to I519E, the “effect of a mutation on the interaction” value is “with no effect”.

On to I519K, for which the “effect of a mutation on the interaction” value is on record as “with no effect”.

With I519A, the “effect of a mutation on the interaction” value is reported as “with no effect”.

For L500K, the “effect of a mutation on the interaction” value is on record as “with no effect”.

As to L500A, the “effect of a mutation on the interaction” value was “with no effect”.

As for L500E, the “effect of a mutation on the interaction” value is on record as “with no effect”.

As for R521K, the “effect of a mutation on the interaction” value is recorded as “with no effect”.

For R521A, the “effect of a mutation on the interaction” value is given as “with no effect”.

R521E: the “effect of a mutation on the interaction” value is on record as “with no effect”.

Take E501K: the “effect of a mutation on the interaction” value is “with no effect”.

Regarding E501A, the “effect of a mutation on the interaction” value is listed as “with no effect”.

Consider Q471K, for which the “effect of a mutation on the interaction” value was “with no effect”.

For the variant Q471E, the “effect of a mutation on the interaction” value is on record as “with no effect”.

On to Q471A, for which the “effect of a mutation on the interaction” value was “with no effect”.

A504K: the “effect of a mutation on the interaction” value is recorded as “with no effect”.

In the case of A504E, the “effect of a mutation on the interaction” value is listed as “with no effect”.

As for S498A, the “effect of a mutation on the interaction” value is “with no effect”.

Consider S498K, for which the “effect of a mutation on the interaction” value was “with no effect”.

Consider S498E, for which the “effect of a mutation on the interaction” value is listed as “with no effect”.

Consider L481K, for which the “effect of a mutation on the interaction” value is given as “with no effect”.

For the variant L481A, the “effect of a mutation on the interaction” value is “with no effect”.

Regarding L481E, the “effect of a mutation on the interaction” value was “with no effect”.

For the variant V506E, the “effect of a mutation on the interaction” value is on record as “disrupting interaction strength”.

Regarding V506A, the “effect of a mutation on the interaction” value is listed as “with no effect”.

V506K: the “effect of a mutation on the interaction” value is “with no effect”.

On to F476K, for which the “effect of a mutation on the interaction” value is “with no effect”.

As for F476A, the “effect of a mutation on the interaction” value is given as “with no effect”.

Take F476E: the “effect of a mutation on the interaction” value was “with no effect”.

With S494K, the “effect of a mutation on the interaction” value is reported as “with no effect”.

For the variant S494E, the “effect of a mutation on the interaction” value is “with no effect”.

For S494A, the “effect of a mutation on the interaction” value is listed as “with no effect”.

Consider C469E, for which the “effect of a mutation on the interaction” value is on record as “with no effect”.

C469A: the “effect of a mutation on the interaction” value is reported as “with no effect”.

On to C469K, for which the “effect of a mutation on the interaction” value was “with no effect”.

R514E: the “effect of a mutation on the interaction” value is “with no effect”.

R514A: the “effect of a mutation on the interaction” value is on record as “with no effect”.

As to R514K, the “effect of a mutation on the interaction” value is reported as “with no effect”.

For the variant S507K, the “effect of a mutation on the interaction” value is given as “with no effect”.

Turning to S507A, the “effect of a mutation on the interaction” value is reported as “with no effect”.

Regarding S507E, the “effect of a mutation on the interaction” value is “with no effect”.

R493E: the “effect of a mutation on the interaction” value was “with no effect”.

On to R493A, for which the “effect of a mutation on the interaction” value is “with no effect”.

Regarding R493K, the “effect of a mutation on the interaction” value is recorded as “with no effect”.

For L467A, the “effect of a mutation on the interaction” value is given as “with no effect”.

Take L467K: the “effect of a mutation on the interaction” value is on record as “with no effect”.

As to L467E, the “effect of a mutation on the interaction” value is reported as “with no effect”.

With S488E, the “effect of a mutation on the interaction” value is “with no effect”.

In the case of S488A, the “effect of a mutation on the interaction” value was “with no effect”.

As to S488K, the “effect of a mutation on the interaction” value is “with no effect”.

Take G518K: the “effect of a mutation on the interaction” value is reported as “with no effect”.

Consider G518A, for which the “effect of a mutation on the interaction” value is given as “with no effect”.

For G518E, the “effect of a mutation on the interaction” value is listed as “with no effect”.

As for F474E, the “effect of a mutation on the interaction” value is “with no effect”.
